Biological target: T1, CD22 Protein (His Tag), Sino Biological Cat. No. 11958-H08H (UniProt P20273 20-687)
T1 construct: soluble analyte, 50 nM in BLI; also called Sino Biological antigen
T1 sequence (looked up): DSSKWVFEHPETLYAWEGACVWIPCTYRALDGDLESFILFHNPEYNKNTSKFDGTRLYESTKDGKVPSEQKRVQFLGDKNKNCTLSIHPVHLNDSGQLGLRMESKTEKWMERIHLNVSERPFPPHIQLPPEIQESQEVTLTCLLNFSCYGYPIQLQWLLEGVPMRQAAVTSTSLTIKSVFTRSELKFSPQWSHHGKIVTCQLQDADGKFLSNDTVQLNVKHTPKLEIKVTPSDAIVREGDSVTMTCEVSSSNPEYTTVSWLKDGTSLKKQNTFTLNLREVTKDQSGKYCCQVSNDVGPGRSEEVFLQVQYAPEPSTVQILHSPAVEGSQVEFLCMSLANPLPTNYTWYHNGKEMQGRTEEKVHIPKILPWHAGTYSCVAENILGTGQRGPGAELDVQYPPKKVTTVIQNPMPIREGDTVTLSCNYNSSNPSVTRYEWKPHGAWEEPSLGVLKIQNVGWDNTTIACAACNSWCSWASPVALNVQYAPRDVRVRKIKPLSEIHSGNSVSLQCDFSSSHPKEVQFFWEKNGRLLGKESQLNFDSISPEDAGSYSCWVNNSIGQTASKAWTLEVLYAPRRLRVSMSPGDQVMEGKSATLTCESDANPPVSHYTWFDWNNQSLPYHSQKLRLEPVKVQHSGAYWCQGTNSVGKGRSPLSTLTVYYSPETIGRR
Assay: BLI, IgG on anti-human Fc sensor

B1: MYT2275 (antibody, V domains shown)
VH: EVQLVESGGGLVKPGGSLRLSCAASGFAFSHYDMSWVRQAPGKGLEWVAYISSGGGTTYYPDTVKGRFTISRDNAKNSLYLQMSSLRAEDTAMYYCARHSGYGSSYGVLFAYWGQGTLVTVSS
VL: DIQMTQSPSSLSASVGDRVTITCRASQDISNYLNWYQQKPGKAVKLLIYYTSILHSGVPSRFSGSGSGTDYTLTISSLQQEDFATYFCQQGNTLPWTFGGGTKVEIK
notes: TRPH-222 VH I31H; tie by order
B1: no binding (tested: 50 nM).

B2: MYT2301 (antibody, V domains shown)
VH: EVQLVESGGGLVKPGGSLRLSCAASGFAFSIYDMSWVRQAPGKGLEWVAYISSGGGTTYYPDTVKGRFTISRDNAKNSLYLQMSSLRAEDTAMYYCARHSHYGSSYGVLFAYWGQGTLVTVSS
VL: DIQMTQSPSSLSASVGDRVTITCRASQDISNYLNWYQQKPGKAVKLLIYYTSILHSGVPSRFSGSGSGTDYTLTISSLQQEDFATYFCQQGNTLPWTFGGGTKVEIK
notes: TRPH-222 VH G101H; tie by order
B2: no binding (tested: 50 nM).

B3: MYT2303 (antibody, V domains shown)
VH: EVQLVESGGGLVKPGGSLRLSCAASGFAFSIYDMSWVRQAPGKGLEWVAYISSGGGTTYYPDTVKGRFTISRDNAKNSLYLQMSSLRAEDTAMYYCARHSGYHSSYGVLFAYWGQGTLVTVSS
VL: DIQMTQSPSSLSASVGDRVTITCRASQDISNYLNWYQQKPGKAVKLLIYYTSILHSGVPSRFSGSGSGTDYTLTISSLQQEDFATYFCQQGNTLPWTFGGGTKVEIK
notes: TRPH-222 VH G103H; tie by order
B3: no binding (tested: 50 nM).

B4: MYT1496 (antibody, V domains shown)
VH: QVQLVQSGAEVKKPGSSVKVSCKASHYTFTSYWLHWVRQAPGQGLEWIGYINPRNDYTEYNQNFKDKATITADESTNTAYMELSSLRSEDTAFYFCARRDITTFYWGQGTTVTVSS
VL: DIQLTQSPSSLSASVGDRVTMSCKSSQSVLYSANHKNYLAWYQQKPGKAPKLLIYWASTRESGVPSRFSGSGSGTDFTFTISSLQPEDIATYYCHQYLSSWTFGGGTKVQIK
notes: ADCT-602 VH G26H; tie by order
B4: no binding (tested: 50 nM).

B5: MYT1509 (antibody, V domains shown)
VH: QVQLVQSGAEVKKPGSSVKVSCKASGYTFTSYWLHWVRQAPGQGLEWIGYINHRNDYTEYNQNFKDKATITADESTNTAYMELSSLRSEDTAFYFCARRDITTFYWGQGTTVTVSS
VL: DIQLTQSPSSLSASVGDRVTMSCKSSQSVLYSANHKNYLAWYQQKPGKAPKLLIYWASTRESGVPSRFSGSGSGTDFTFTISSLQPEDIATYYCHQYLSSWTFGGGTKVQIK
notes: ADCT-602 VH P53H; tie by order
B5: no binding (tested: 50 nM).

B6: MYT1505 (antibody, V domains shown)
VH: QVQLVQSGAEVKKPGSSVKVSCKASGYTFTSYWLAWVRQAPGQGLEWIGYINPRNDYTEYNQNFKDKATITADESTNTAYMELSSLRSEDTAFYFCARRDITTFYWGQGTTVTVSS
VL: DIQLTQSPSSLSASVGDRVTMSCKSSQSVLYSANHKNYLAWYQQKPGKAPKLLIYWASTRESGVPSRFSGSGSGTDFTFTISSLQPEDIATYYCHQYLSSWTFGGGTKVQIK
notes: ADCT-602 VH H35A; tie by order
B6: no binding (tested: 50 nM).

B7: MYT1507 (antibody, V domains shown)
VH: QVQLVQSGAEVKKPGSSVKVSCKASGYTFTSYWLHWVRQAPGQGLEWIGYHNPRNDYTEYNQNFKDKATITADESTNTAYMELSSLRSEDTAFYFCARRDITTFYWGQGTTVTVSS
VL: DIQLTQSPSSLSASVGDRVTMSCKSSQSVLYSANHKNYLAWYQQKPGKAPKLLIYWASTRESGVPSRFSGSGSGTDFTFTISSLQPEDIATYYCHQYLSSWTFGGGTKVQIK
notes: ADCT-602 VH I51H; tie by order
B7: no binding (tested: 50 nM).

B8: MYT1498 (antibody, V domains shown)
VH: QVQLVQSGAEVKKPGSSVKVSCKASGYHFTSYWLHWVRQAPGQGLEWIGYINPRNDYTEYNQNFKDKATITADESTNTAYMELSSLRSEDTAFYFCARRDITTFYWGQGTTVTVSS
VL: DIQLTQSPSSLSASVGDRVTMSCKSSQSVLYSANHKNYLAWYQQKPGKAPKLLIYWASTRESGVPSRFSGSGSGTDFTFTISSLQPEDIATYYCHQYLSSWTFGGGTKVQIK
notes: ADCT-602 VH T28H; tie by order
B8: no binding (tested: 50 nM).

B9: MYT1521 (antibody, V domains shown)
VH: QVQLVQSGAEVKKPGSSVKVSCKASGYTFTSYWLHWVRQAPGQGLEWIGYINPRNDYTEYNQNFHDKATITADESTNTAYMELSSLRSEDTAFYFCARRDITTFYWGQGTTVTVSS
VL: DIQLTQSPSSLSASVGDRVTMSCKSSQSVLYSANHKNYLAWYQQKPGKAPKLLIYWASTRESGVPSRFSGSGSGTDFTFTISSLQPEDIATYYCHQYLSSWTFGGGTKVQIK
notes: ADCT-602 VH K65H; tie by order
B9: no binding (tested: 50 nM).

B10: MYT1497 (antibody, V domains shown)
VH: QVQLVQSGAEVKKPGSSVKVSCKASGHTFTSYWLHWVRQAPGQGLEWIGYINPRNDYTEYNQNFKDKATITADESTNTAYMELSSLRSEDTAFYFCARRDITTFYWGQGTTVTVSS
VL: DIQLTQSPSSLSASVGDRVTMSCKSSQSVLYSANHKNYLAWYQQKPGKAPKLLIYWASTRESGVPSRFSGSGSGTDFTFTISSLQPEDIATYYCHQYLSSWTFGGGTKVQIK
notes: ADCT-602 VH Y27H; tie by order
B10: no binding (tested: 50 nM).

B11: MYT1504 (antibody, V domains shown)
VH: QVQLVQSGAEVKKPGSSVKVSCKASGYTFTSYWHHWVRQAPGQGLEWIGYINPRNDYTEYNQNFKDKATITADESTNTAYMELSSLRSEDTAFYFCARRDITTFYWGQGTTVTVSS
VL: DIQLTQSPSSLSASVGDRVTMSCKSSQSVLYSANHKNYLAWYQQKPGKAPKLLIYWASTRESGVPSRFSGSGSGTDFTFTISSLQPEDIATYYCHQYLSSWTFGGGTKVQIK
notes: ADCT-602 VH L34H; tie by order
B11: no binding (tested: 50 nM).

B12: MYT1499 (antibody, V domains shown)
VH: QVQLVQSGAEVKKPGSSVKVSCKASGYTHTSYWLHWVRQAPGQGLEWIGYINPRNDYTEYNQNFKDKATITADESTNTAYMELSSLRSEDTAFYFCARRDITTFYWGQGTTVTVSS
VL: DIQLTQSPSSLSASVGDRVTMSCKSSQSVLYSANHKNYLAWYQQKPGKAPKLLIYWASTRESGVPSRFSGSGSGTDFTFTISSLQPEDIATYYCHQYLSSWTFGGGTKVQIK
notes: ADCT-602 VH F29H; tie by order
B12: no binding (tested: 50 nM).

B13: MYT1513 (antibody, V domains shown)
VH: QVQLVQSGAEVKKPGSSVKVSCKASGYTFTSYWLHWVRQAPGQGLEWIGYINPRNDHTEYNQNFKDKATITADESTNTAYMELSSLRSEDTAFYFCARRDITTFYWGQGTTVTVSS
VL: DIQLTQSPSSLSASVGDRVTMSCKSSQSVLYSANHKNYLAWYQQKPGKAPKLLIYWASTRESGVPSRFSGSGSGTDFTFTISSLQPEDIATYYCHQYLSSWTFGGGTKVQIK
notes: ADCT-602 VH Y57H; tie by order
B13: no binding (tested: 50 nM).

B14: MYT1508 (antibody, V domains shown)
VH: QVQLVQSGAEVKKPGSSVKVSCKASGYTFTSYWLHWVRQAPGQGLEWIGYIHPRNDYTEYNQNFKDKATITADESTNTAYMELSSLRSEDTAFYFCARRDITTFYWGQGTTVTVSS
VL: DIQLTQSPSSLSASVGDRVTMSCKSSQSVLYSANHKNYLAWYQQKPGKAPKLLIYWASTRESGVPSRFSGSGSGTDFTFTISSLQPEDIATYYCHQYLSSWTFGGGTKVQIK
notes: ADCT-602 VH N52H; tie by order
B14: no binding (tested: 50 nM).

B15: MYT1523 (antibody, V domains shown)
VH: QVQLVQSGAEVKKPGSSVKVSCKASGYTFTSYWLHWVRQAPGQGLEWIGYINPRNDYTEYNQNFKDKATITADESTNTAYMELSSLRSEDTAFYFCHRRDITTFYWGQGTTVTVSS
VL: DIQLTQSPSSLSASVGDRVTMSCKSSQSVLYSANHKNYLAWYQQKPGKAPKLLIYWASTRESGVPSRFSGSGSGTDFTFTISSLQPEDIATYYCHQYLSSWTFGGGTKVQIK
notes: ADCT-602 VH A97H; tie by order
B15: no binding (tested: 50 nM).

Source: patent US20220288219A1 (MYTHIC THERAPEUTICS, published 2022)
